In PMC5575113, “Creating the Functional Single-Ring GroEL-GroES Chaperonin Systems via Modulating GroEL-GroES Interaction” (Scientific Reports, 2017):
Blank lines part the entries; values can stand above or below the binder they belong to.

Assays:
[1] = molecular target: T1, GroEL^SR (GroEL R452A/E461A/S463A/V464A) (E. coli, UniProt P0A6F5 1-548, R452A | E461A | S463A | V464A); assay: MST; cochaperonin labelled with DyLight 650, unlabelled GroEL or GroEL^SR titrated (serial dilution of 15 samples), 30 min incubation; 50 mM TrisCl pH 7.5, 100 mM KCl, 10 mM MgCl2, 1 mM EDTA, 2 mM ADP, 0.5 mg/mL BSA; Monolith NT115, 80% LED, 40% IR-laser; details: both partners purified
T1 construct: GroEL, E. coli, single-ring variant; groEL^SR in the pTrc vector; also called single-ring GroEL; source: dialysis against 30% methanol, FastQ column

[2] = molecular target: T2, GroEL (E. coli, UniProt P0A6F5 1-548); assay: MST; cochaperonin labelled with DyLight 650; unlabelled GroEL or GroEL^SR in a serial dilution of 15 samples; 50 mM TrisCl pH 7.5, 100 mM KCl, 10 mM MgCl2, 1 mM EDTA, 2 mM ADP, 0.5 mg/mL BSA; 30 min incubation; details: both partners purified
T2 construct: GroEL, E. coli, expressed from pTrc; two heptameric rings (tetradecamer); also called chaperonin; double-ring GroEL; source: E. coli BL21(DE3), purified (methanol dialysis, FastQ column); copies: 14

Kd [1]: 3.67 nM
B1: GroES (natural protein, E. coli, UniProt P0A6F9 1-97, looked up)
chain: MNIRPLHDRVIVKRKEVETKSAGGIVLTGSAAAKSTRGEVLAVGNGRILENGEVKPLDVKVGDIVIFNDGYGVKSEKIDNEEVLIMSESDILAIVEA
modifications: DyLight 650 NHS Ester amine reactive dye (labelled)
notes: GroES, E. coli; one heptameric ring; groES in pET3b; also called cochaperonin

Kd [2]: 3.83 ± 0.93 nM
B2: GroES (natural protein, E. coli, UniProt P0A6F9 1-97, looked up)
chain: B1 chain
modifications: DyLight 650 NHS ester on amines (for MST)
notes: GroES, E. coli, expressed from pET3b; heptamer; also called cochaperonin; wild type GroES
